Measured values: US20240252614A1

Tests used:
Details in all cases: remark: other sources report otherwise
hMPV048 (hMPV A), Q6WB98 [1] = assay: BLI, 53C stress
hMPV046 (hMPV A), Q6WB98 [2] = assay: BLI, 53C stress
hMPV062 (hMPV A), Q6WB98 [3] = assay: BLI, 53C stress
hMPV061 (hMPV A), Q6WB98 [4] = assay: BLI, 53C stress
hMPV053 (hMPV A), Q6WB98 [5] = assay: BLI, 53C stress
hMPV067 (hMPV A), Q6WB98 [6] = assay: BLI, 53C stress
hMPV047 (hMPV A), Q6WB98 [7] = assay: BLI, 53C stress
hMPV050 (hMPV A), Q6WB98 [8] = assay: BLI, 53C stress
hMPV060 (hMPV A), Q6WB98 [9] = assay: BLI, 53C stress
hMPV071 (hMPV A), Q6WB98 [10] = assay: BLI, 53C stress
hMPV068 (hMPV A), Q6WB98 [11] = assay: BLI, 53C stress
[12] = molecular target: hMPV A F WT Control (hMPV A), Q6WB98; assay: BLI, 53C stress
hMPV063 (hMPV A), Q6WB98 = assay: BLI, no stress
hMPV048 (hMPV A), Q6WB98 [13] = assay: BLI, no stress
hMPV046 (hMPV A), Q6WB98 [14] = assay: BLI, no stress
hMPV077 (hMPV A), Q6WB98 = assay: BLI, no stress
hMPV052 (hMPV A), Q6WB98 = assay: BLI, no stress
hMPV059 (hMPV A), Q6WB98 = assay: BLI, no stress
hMPV043 (hMPV A), Q6WB98 = assay: BLI, no stress
hMPV062 (hMPV A), Q6WB98 [15] = assay: BLI, no stress
hMPV061 (hMPV A), Q6WB98 [16] = assay: BLI, no stress
hMPV066 (hMPV A), Q6WB98 = assay: BLI, no stress
hMPV045 (hMPV A), Q6WB98 = assay: BLI, no stress
hMPV053 (hMPV A), Q6WB98 [17] = assay: BLI, no stress
hMPV044 (hMPV A), Q6WB98 = assay: BLI, no stress
hMPV054 (hMPV A), Q6WB98 = assay: BLI, no stress
hMPV067 (hMPV A), Q6WB98 [18] = assay: BLI, no stress
hMPV049 (hMPV A), Q6WB98 = assay: BLI, no stress
hMPV047 (hMPV A), Q6WB98 [19] = assay: BLI, no stress
hMPV075 (hMPV A), Q6WB98 = assay: BLI, no stress
hMPV050 (hMPV A), Q6WB98 [20] = assay: BLI, no stress
hMPV060 (hMPV A), Q6WB98 [21] = assay: BLI, no stress
hMPV071 (hMPV A), Q6WB98 [22] = assay: BLI, no stress
hMPV069 (hMPV A), Q6WB98 = assay: BLI, no stress
hMPV068 (hMPV A), Q6WB98 [23] = assay: BLI, no stress
[24] = molecular target: hMPV A F WT Control (hMPV A), Q6WB98; assay: BLI, no stress
hMPV055 (hMPV A), Q6WB98 = assay: BLI, no stress
hMPV058 (hMPV A), Q6WB98 = assay: BLI, no stress

B1: MPE8 mAb (antibody, V domains shown)
VH: EVQLVESGGGLVKPGGSLRLSCAASGFTFSSYSMNWVRQAPGKGLEWVSSISASSSYSDYADSAKGRFTISRDNAKTSLFLQMNSLRAEDTAIYFCARARATGYSSITPYFDIWGQGTLVTVSS
VL: QSVVTQTPSVSGAPGQRVTISCTGSSSNIGAGYDVHWYQQLPGTAPKLLIYDNNNRPSGVPDRFSASKSGTSASLAITGLQAEDEADYYCQSYDRNLSGVFGTGTKVTVL
Response Shift (hMPV048 (hMPV A), Q6WB98 [1]): -0.056 nm | Response Shift (hMPV046 (hMPV A), Q6WB98 [2]): -0.012 nm | Response Shift (hMPV062 (hMPV A), Q6WB98 [3]): 0.006 nm | Response Shift (hMPV061 (hMPV A), Q6WB98 [4]): -0.059 nm | Response Shift (hMPV053 (hMPV A), Q6WB98 [5]): -0.032 nm | Response Shift (hMPV067 (hMPV A), Q6WB98 [6]): -0.041 nm | Response Shift (hMPV047 (hMPV A), Q6WB98 [7]): -0.051 nm | Response Shift (hMPV050 (hMPV A), Q6WB98 [8]): -0.014 nm | Response Shift (hMPV060 (hMPV A), Q6WB98 [9]): -0.06 nm | Response Shift (hMPV071 (hMPV A), Q6WB98 [10]): -0.039 nm | Response Shift (hMPV068 (hMPV A), Q6WB98 [11]): 0.002 nm | Response Shift [12]: -0.017 nm | Response Shift (hMPV063 (hMPV A), Q6WB98): 0.849 nm | Response Shift (hMPV048 (hMPV A), Q6WB98 [13]): 0.596 nm | Response Shift (hMPV046 (hMPV A), Q6WB98 [14]): 0.603 nm | Response Shift (hMPV077 (hMPV A), Q6WB98): 0.706 nm | Response Shift (hMPV052 (hMPV A), Q6WB98): 0.716 nm | Response Shift (hMPV059 (hMPV A), Q6WB98): 0.666 nm | Response Shift (hMPV043 (hMPV A), Q6WB98): 0.558 nm | Response Shift (hMPV062 (hMPV A), Q6WB98 [15]): 0.713 nm | Response Shift (hMPV061 (hMPV A), Q6WB98 [16]): 0.813 nm | Response Shift (hMPV066 (hMPV A), Q6WB98): 0.779 nm | Response Shift (hMPV045 (hMPV A), Q6WB98): 0.603 nm | Response Shift (hMPV053 (hMPV A), Q6WB98 [17]): 0.624 nm | Response Shift (hMPV044 (hMPV A), Q6WB98): 0.72 nm | Response Shift (hMPV054 (hMPV A), Q6WB98): 0.73 nm | Response Shift (hMPV067 (hMPV A), Q6WB98 [18]): 0.744 nm | Response Shift (hMPV049 (hMPV A), Q6WB98): 0.672 nm | Response Shift (hMPV047 (hMPV A), Q6WB98 [19]): 0.259 nm | Response Shift (hMPV075 (hMPV A), Q6WB98): 0.777 nm | Response Shift (hMPV050 (hMPV A), Q6WB98 [20]): 0.641 nm | Response Shift (hMPV060 (hMPV A), Q6WB98 [21]): 0.84 nm | Response Shift (hMPV071 (hMPV A), Q6WB98 [22]): 0.804 nm | Response Shift (hMPV069 (hMPV A), Q6WB98): 0.651 nm | Response Shift (hMPV068 (hMPV A), Q6WB98 [23]): 0.738 nm | Response Shift [24]: 0.69 nm | Response Shift (hMPV055 (hMPV A), Q6WB98): 0.581 nm | Response Shift (hMPV058 (hMPV A), Q6WB98): 0.684 nm
